Measured values: patent US20260184748A1 (University of Pennsylvania, published 2026)
Where no end group is shown, it is not given here.

Tests used:
Assay in all cases: cell-based or functional assay
HTR2A = HTR2A (UniProt P28223 1-471)
LTB4R = LTB4R (UniProt Q15722 1-352)
MTNR1A = MTNR1A (UniProt P48039 1-350)
NPBWR1 = target: T1, NPBWR1 (UniProt P48145 1-328)
T1 sequence (looked up): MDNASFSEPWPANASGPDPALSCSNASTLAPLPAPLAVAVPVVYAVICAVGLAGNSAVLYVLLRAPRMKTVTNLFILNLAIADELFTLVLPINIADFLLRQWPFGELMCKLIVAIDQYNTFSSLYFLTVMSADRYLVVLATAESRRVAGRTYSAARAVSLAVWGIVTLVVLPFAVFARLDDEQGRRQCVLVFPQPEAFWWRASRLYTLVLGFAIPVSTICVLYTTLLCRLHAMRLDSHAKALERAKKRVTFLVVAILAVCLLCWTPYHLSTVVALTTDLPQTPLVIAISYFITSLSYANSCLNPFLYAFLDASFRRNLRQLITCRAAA

AVPR1B = target: T2, AVPR1B (UniProt P47901 1-424)
T2 sequence (looked up): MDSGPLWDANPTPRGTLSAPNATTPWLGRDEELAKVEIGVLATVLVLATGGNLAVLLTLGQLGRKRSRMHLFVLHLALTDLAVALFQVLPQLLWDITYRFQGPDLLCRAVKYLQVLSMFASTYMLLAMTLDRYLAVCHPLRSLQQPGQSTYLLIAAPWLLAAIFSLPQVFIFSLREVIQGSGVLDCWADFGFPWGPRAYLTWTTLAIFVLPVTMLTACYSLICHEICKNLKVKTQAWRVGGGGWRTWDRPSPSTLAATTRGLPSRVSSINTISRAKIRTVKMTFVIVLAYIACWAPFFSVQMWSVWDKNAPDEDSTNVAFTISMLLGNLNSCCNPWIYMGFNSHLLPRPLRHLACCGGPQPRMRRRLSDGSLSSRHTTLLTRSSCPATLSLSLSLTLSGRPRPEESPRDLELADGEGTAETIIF

PRLHR = target: T3, PRLHR (UniProt P49683 1-370)
T3 sequence (looked up): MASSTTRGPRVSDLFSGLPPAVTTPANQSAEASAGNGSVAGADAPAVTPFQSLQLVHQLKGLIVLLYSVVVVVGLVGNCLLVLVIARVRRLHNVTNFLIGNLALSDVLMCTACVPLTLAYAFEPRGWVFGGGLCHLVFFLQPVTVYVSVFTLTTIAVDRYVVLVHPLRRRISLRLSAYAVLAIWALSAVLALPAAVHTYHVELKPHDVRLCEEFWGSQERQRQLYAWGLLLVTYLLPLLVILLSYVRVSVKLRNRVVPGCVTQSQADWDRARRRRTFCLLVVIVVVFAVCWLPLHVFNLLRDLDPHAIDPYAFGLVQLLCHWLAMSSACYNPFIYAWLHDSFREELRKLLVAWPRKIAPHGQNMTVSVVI

PTAFR = PTAFR (UniProt P25105 1-342)
SSTR2 = SSTR2 (UniProt P30874 1-369)
UTR2 = target: T4, UTR2 (UniProt Q9UKP6 1-389)
T4 sequence (looked up): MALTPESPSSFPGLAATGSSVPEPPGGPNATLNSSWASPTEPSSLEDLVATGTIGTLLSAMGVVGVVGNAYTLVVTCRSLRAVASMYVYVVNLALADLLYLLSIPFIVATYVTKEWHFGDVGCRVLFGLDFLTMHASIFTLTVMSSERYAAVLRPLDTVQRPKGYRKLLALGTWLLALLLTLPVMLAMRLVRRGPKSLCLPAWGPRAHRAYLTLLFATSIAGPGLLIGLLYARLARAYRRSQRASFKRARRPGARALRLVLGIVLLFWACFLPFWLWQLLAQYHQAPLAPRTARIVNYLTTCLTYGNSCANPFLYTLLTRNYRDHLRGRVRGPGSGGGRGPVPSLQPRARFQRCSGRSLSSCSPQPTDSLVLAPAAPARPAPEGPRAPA

CALCRL-RAMP2 = CALCRL-RAMP2 (UniProt Q16602 23-461; O60895 43-175)
CALCR-RAMP2 = CALCR-RAMP2 (UniProt P30988 25-474; O60895 43-175, limits assumed)
CCR8 = CCR8 (UniProt P51685 1-355)
CNR1 = CNR1 (UniProt P21554 1-472)
CRHR1 = target: T5, CRHR1 (UniProt P34998 24-415, limits assumed)
T5 sequence (looked up): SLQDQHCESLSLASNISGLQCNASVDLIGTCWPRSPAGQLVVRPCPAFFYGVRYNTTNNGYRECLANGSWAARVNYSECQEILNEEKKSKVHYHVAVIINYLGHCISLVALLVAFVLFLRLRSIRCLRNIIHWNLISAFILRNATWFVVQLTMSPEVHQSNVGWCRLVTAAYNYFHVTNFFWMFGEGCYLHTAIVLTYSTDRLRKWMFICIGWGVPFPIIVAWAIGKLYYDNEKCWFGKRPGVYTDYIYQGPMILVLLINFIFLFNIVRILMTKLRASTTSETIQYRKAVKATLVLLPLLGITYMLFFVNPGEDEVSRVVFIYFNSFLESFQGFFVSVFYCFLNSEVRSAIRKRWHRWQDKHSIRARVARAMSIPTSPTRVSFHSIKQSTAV

EDG3 = EDG3 (UniProt Q99500 1-378)
F2RL1 = F2RL1 (UniProt P55085 26-397, limits assumed)

Chain of SSTR2 (P30874 whole entry): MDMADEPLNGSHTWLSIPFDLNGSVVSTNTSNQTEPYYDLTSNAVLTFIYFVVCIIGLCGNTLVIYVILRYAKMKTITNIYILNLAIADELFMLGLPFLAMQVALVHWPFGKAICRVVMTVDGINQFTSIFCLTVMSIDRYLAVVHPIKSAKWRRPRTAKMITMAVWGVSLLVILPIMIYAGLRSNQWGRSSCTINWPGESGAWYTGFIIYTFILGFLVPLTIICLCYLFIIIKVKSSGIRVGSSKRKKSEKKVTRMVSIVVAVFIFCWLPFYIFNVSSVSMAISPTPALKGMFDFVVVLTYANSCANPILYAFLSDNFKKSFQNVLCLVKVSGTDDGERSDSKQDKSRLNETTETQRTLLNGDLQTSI
Chain of CALCRL-RAMP2 (Q16602 23-461 limits assumed, chain 1 of 2): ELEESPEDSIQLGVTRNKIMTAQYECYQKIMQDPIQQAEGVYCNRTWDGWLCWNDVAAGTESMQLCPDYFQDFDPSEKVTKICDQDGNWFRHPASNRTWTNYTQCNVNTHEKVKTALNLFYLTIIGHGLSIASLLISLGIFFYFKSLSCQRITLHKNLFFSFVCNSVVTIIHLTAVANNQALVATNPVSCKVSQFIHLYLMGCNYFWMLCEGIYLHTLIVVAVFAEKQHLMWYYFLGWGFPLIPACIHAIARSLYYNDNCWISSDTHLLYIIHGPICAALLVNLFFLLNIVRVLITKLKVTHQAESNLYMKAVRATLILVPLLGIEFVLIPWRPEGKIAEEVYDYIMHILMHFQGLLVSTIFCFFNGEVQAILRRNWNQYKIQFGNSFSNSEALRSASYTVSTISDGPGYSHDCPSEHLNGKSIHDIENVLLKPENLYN
Chain of CALCRL-RAMP2 (O60895 43-175 limits assumed, chain 2 of 2): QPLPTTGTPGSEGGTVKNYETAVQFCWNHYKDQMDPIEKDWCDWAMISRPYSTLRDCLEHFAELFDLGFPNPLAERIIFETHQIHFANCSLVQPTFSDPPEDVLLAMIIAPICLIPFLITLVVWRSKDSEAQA
Chain of MTNR1A (P48039 whole entry): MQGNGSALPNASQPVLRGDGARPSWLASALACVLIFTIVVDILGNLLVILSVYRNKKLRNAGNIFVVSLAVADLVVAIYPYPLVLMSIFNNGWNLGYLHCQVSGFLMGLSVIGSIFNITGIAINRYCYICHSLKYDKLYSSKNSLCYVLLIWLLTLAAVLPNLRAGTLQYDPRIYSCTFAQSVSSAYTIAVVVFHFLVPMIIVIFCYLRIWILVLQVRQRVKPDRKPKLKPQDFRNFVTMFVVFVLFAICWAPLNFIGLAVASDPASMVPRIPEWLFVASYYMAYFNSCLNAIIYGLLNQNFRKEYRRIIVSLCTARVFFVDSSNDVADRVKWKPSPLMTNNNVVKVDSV
Chain of LTB4R (Q15722 whole entry): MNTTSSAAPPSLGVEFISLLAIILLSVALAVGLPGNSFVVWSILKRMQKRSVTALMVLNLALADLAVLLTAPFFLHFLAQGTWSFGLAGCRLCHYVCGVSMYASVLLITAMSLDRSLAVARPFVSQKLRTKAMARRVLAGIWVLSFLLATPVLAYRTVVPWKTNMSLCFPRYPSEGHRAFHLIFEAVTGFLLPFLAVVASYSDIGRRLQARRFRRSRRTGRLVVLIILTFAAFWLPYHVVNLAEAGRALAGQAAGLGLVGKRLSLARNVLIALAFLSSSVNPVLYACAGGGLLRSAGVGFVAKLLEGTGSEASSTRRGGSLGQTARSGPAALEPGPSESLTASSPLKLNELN
Chain of EDG3 (Q99500 whole entry): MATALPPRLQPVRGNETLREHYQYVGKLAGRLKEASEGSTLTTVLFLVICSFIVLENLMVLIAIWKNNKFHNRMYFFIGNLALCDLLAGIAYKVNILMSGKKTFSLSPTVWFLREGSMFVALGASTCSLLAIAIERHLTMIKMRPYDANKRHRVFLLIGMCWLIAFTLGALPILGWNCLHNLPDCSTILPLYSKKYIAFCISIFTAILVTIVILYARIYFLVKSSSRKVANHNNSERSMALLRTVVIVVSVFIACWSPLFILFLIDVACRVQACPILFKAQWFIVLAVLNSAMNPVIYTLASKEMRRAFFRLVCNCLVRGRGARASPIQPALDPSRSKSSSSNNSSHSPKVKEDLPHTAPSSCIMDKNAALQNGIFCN
Chain of CALCR-RAMP2 (P30988 25-474 limits assumed, chain 1 of 2): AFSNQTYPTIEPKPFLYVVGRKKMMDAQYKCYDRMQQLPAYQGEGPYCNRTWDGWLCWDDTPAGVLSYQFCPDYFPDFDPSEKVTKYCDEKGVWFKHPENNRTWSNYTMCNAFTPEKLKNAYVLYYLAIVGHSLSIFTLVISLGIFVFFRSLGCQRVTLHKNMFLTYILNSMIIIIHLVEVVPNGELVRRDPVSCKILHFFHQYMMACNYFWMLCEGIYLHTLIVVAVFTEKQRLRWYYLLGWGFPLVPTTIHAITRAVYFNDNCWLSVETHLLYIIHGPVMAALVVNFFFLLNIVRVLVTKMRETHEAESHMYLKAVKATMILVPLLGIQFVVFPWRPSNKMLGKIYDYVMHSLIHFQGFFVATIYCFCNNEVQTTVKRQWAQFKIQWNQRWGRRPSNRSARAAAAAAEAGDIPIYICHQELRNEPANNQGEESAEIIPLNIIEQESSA
Chain of CALCR-RAMP2 (O60895 43-175 limits assumed, chain 2 of 2): as the sequence (O60895 43-175 limits assumed, chain 2 of 2) above
Chain of CNR1 (P21554 whole entry): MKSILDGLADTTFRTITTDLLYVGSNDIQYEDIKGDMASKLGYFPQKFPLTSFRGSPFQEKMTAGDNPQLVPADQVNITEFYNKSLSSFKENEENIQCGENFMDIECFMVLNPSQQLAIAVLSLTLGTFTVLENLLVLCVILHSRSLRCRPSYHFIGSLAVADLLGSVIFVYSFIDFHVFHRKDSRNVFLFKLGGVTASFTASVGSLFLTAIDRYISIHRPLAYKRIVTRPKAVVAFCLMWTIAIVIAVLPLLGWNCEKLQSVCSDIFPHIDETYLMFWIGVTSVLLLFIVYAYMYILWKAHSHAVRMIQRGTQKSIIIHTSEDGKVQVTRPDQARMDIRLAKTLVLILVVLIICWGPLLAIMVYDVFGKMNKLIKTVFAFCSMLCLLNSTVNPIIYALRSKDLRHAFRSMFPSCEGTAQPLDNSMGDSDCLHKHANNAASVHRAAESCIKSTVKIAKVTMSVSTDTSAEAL
Chain of HTR2A (P28223 whole entry): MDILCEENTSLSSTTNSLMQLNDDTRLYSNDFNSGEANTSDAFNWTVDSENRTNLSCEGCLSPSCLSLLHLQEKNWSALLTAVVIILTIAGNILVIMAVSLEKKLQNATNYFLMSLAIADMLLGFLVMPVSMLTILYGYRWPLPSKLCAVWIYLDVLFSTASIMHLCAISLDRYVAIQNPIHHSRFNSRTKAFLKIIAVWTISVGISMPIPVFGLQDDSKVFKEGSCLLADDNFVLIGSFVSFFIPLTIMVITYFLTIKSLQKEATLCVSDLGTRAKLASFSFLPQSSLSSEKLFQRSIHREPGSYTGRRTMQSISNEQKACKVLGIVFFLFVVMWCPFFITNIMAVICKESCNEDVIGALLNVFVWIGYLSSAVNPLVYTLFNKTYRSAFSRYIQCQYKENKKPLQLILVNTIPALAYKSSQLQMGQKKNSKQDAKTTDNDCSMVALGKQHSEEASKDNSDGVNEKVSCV
Chain of PTAFR (P25105 whole entry): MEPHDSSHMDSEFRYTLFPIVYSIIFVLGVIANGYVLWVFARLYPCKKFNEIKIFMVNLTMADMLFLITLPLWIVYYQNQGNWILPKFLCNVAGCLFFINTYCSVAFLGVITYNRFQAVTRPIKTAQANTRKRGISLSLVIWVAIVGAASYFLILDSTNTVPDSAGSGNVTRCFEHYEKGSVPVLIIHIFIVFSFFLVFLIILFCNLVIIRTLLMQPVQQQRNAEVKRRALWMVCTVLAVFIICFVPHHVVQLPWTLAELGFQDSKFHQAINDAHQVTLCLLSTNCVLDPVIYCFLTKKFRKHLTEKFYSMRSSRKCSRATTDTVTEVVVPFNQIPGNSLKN

QATVGDVNTDRPGLLDLK (also: synthesised on Rink amide resin, C-terminal amide not given here outright) [octadecaneuropeptide (ODN)]
% Activity, arrestin, antagonist mode, 2.5 uM (HTR2A): -9.7%
% Activity, arrestin, antagonist mode, 2.5 uM (LTB4R): 10.3%
% Activity, arrestin, antagonist mode, 2.5 uM (MTNR1A): 2.2%
% Activity, arrestin, antagonist mode, 2.5 uM (NPBWR1): -15%
% Activity, arrestin, antagonist mode, 2.5 uM (AVPR1B): -25.7%
% Activity, arrestin, antagonist mode, 2.5 uM (PRLHR): -22.2%
% Activity, arrestin, antagonist mode, 2.5 uM (PTAFR): -7.3%
% Activity, arrestin, antagonist mode, 2.5 uM (SSTR2): -20.5%
% Activity, arrestin, antagonist mode, 2.5 uM (UTR2): -27.2%
% Activity, arrestin, antagonist mode, 2.5 uM (CALCRL-RAMP2): -11.6%
% Activity, arrestin, antagonist mode, 2.5 uM (CALCR-RAMP2): -17.8%
% Activity, arrestin, antagonist mode, 2.5 uM (CCR8): -17%
% Activity, arrestin, antagonist mode, 2.5 uM (CNR1): -37.5%
% Activity, arrestin, antagonist mode, 2.5 uM (CRHR1): 5.4%
% Activity, arrestin, antagonist mode, 2.5 uM (EDG3): 15.4%
% Activity, arrestin, antagonist mode, 2.5 uM (F2RL1): -9.2%
